Tests used:
[1] = biological target: T1, EGFR (on EGFR-expressing A431 cells) (UniProt P00533 25-1210, limits assumed); experiment: flow cytometry on EGFR-positive A431 cells
T1 construct: whole, on cells; A431 is a human cell line; also called EGFR-positive cells; EGFR-overexpressing A431 cells

[2] = biological target: T2, CD16a receptor (FcγIIIa) (UniProt P08637 17-254, limits assumed); experiment: CD16a HTRF cellular binding assay, competition with labeled human IgG
T2 construct: whole, on cells
Experimental: FIG. 14: Binding of antibodies to CD16a receptor. Binding was measured using CD16a HTRF cellular binding assay (CisBio). Measurement was performed in duplicates.

[3] = biological target: T1, EGFR (on EGFR-expressing A431 cells); experiment: flow cytometry on A431 cells

T2 sequence (P08637 17-254 limits assumed): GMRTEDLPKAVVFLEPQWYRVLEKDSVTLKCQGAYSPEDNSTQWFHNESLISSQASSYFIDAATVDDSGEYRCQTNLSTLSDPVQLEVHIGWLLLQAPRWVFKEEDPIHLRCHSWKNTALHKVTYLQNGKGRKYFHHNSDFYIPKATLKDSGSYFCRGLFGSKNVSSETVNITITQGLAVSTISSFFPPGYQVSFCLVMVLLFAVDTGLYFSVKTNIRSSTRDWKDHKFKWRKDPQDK

Row | Binder | binding result [1] | binding result [3] | also measured
1 | one-armed domain-exchanged KiH antibody with SEED CH3 domains in the Fab, Variant 2 (antibody, hu425 Fv; one Fab arm only; also called one-armed KiH antibody, CH3-SEED variant 2) heavy: not shown light: DIQMTQSPSSLSASVGDRVTITCSASSSVTYMYWYQQKPGKAPKLLIYDTSNLASGVPSRFSGSGSGTDYTFTISSLQPEDIATYYCQQWSSHIFTFGQGTKVEIKRTVAPEVHLLPPSREEMTKNQVSLTCLARGFYPKDIAVEWESNGQPENNYKTTPSRQEPSQGTTTFAVTSKLTVDKSRWQQGNVFSCSVMHEALHNHYTQKTISLSGEC not shown | binds | – | –
2 | one-armed domain-exchanged KiH antibody with Charge pair CH3 domains in the Fab, Variant 1 (antibody, hu425 Fv; one Fab arm only; also called one-armed KiH antibody, Charge pair variant 1) heavy: not shown light: DIQMTQSPSSLSASVGDRVTITCSASSSVTYMYWYQQKPGKAPKLLIYDTSNLASGVPSRFSGSGSGTDYTFTISSLQPEDIATYYCQQWSSHIFTFGQGTKVEIKRTVAEPQVYTLPPSREEMTKNQVSLTCLVKGFYPSDIAVEWESNGQPENNYDTTPPVLDSDGSFFLYSDLTVDKSRWQQGNVFSCSVMHEALHNHYTQKSLSLSGEC not shown | binds | – | –
3 | one-armed domain-exchanged KiH antibody with Charge pair CH3 domains in the Fab, Variant 2 (antibody, hu425 Fv; one Fab arm only; also called one-armed KiH antibody, Charge pair variant 2) heavy: not shown light: DIQMTQSPSSLSASVGDRVTITCSASSSVTYMYWYQQKPGKAPKLLIYDTSNLASGVPSRFSGSGSGTDYTFTISSLQPEDIATYYCQQWSSHIFTFGQGTKVEIKRTVAEPQVYTLPPSRKEMTKNQVSLTCLVKGFYPSDIAVEWESNGQPENNYKTTPPVLKSDGSFFLYSKLTVDKSRWQQGNVFSCSVMHEALHNHYTQKSLSLSGEC not shown | binds | – | –
4 | one-armed domain-exchanged KiH antibody with Azymetric CH3 domains in the Fab, Variant 1 (antibody, hu425 Fv; one Fab arm only; also called one-armed KiH antibody, CH3-Azymetric variant 1) heavy: not shown light: DIQMTQSPSSLSASVGDRVTITCSASSSVTYMYWYQQKPGKAPKLLIYDTSNLASGVPSRFSGSGSGTDYTFTISSLQPEDIATYYCQQWSSHIFTFGQGTKVEIKRTVAEPQVYVLPPSREEMTKNQVSLLCLVKGFYPSDIAVEWESNGQPENNYLTWPPVLDSDGSFFLYSKLTVDKSRWQQGNVFSCSVMHEALHNHYTQKSLSLSGEC not shown | binds | – | –
5 | One-armed anti-CD16 with the unengineered 3G8 Fab fused to the SEED AG heavy chain (antibody, One Fab arm only; also called one-armed anti-CD16 antibody) heavy: not shown EPKSSDKTHTCPPCPAPELLGGPSVFLFPPKPKDTLMISRTPEVTCVVVDVSHEDPEVKFNWYVDGVEVHNAKTKPREEQYNSTYRVVSVLTVLHQDWLNGKEYKCKVSNKALPAPIEKTISKAKGQPREPQVYTLPPPSEELALNELVTLTCLVKGFYPSDIAVEWLQGSQELPREKYLTWAPVLDSDGSFFLYSILRVAAEDWKKGDTFSCSVMHEALHNHYTQKSLDRSPGK light: not shown | – | – | IC50 [2]: ~0.1 nM

Second part, led by results:

Row | binding result [1] | binding result [3] | Binder | also measured
6 | binds | – | one-armed domain-exchanged KiH antibody with Azymetric CH3 domains in the Fab, Variant 2 (antibody, hu425 Fv; one Fab arm only; also called one-armed KiH antibody, CH3-Azymetric variant 2) heavy: not shown light: DIQMTQSPSSLSASVGDRVTITCSASSSVTYMYWYQQKPGKAPKLLIYDTSNLASGVPSRFSGSGSGTDYTFTISSLQPEDIATYYCQQWSSHIFTFGQGTKVEIKRTVAEPQVYVYPPSREEMTKNQVSLTCLVKGFYPSDIAVEWESNGQPENNYKTTPPVLDSDGSFALVSKLTVDKSRWQQGNVFSCSVMHEALHNHYTQKSLSLSGEC not shown | –
7 | binds | – | one-armed domain-exchanged KiH antibody with SEED CH3 domains in the Fab, Variant 1 (antibody, hu425 Fv; one Fab arm only; also called one-armed KiH antibody, CH3-SEED variant 1) heavy: not shown light: DIQMTQSPSSLSASVGDRVTITCSASSSVTYMYWYQQKPGKAPKLLIYDTSNLASGVPSRFSGSGSGTDYTFTISSLQPEDIATYYCQQWSSHIFTFGQGTKVEIKRTVAEPQVYTLPPPSEELALNELVTLTCLVKGFYPSDIAVEWLQGSQELPREKYLTWAPVLDSDGSFFLYSILRVAAEDWKKGDTFSCSVMHEALHNHYTQKSLDRSGEC not shown | –
8 | – | binds | Unengineered one-armed anti-EGFR antibody (CH1/CL hu425 Fab on SEED AG heavy chain, with huFc_GA SEED) (antibody, One Fab arm only (monovalent); also called unengineered Fab one-armed anti-EGFR; control antibody) heavy: QVQLVQSGAEVKKPGASVKVSCKASGYTFTSHWMHWVRQAPGQGLEWIGEFNPSNGRTNYNEKFKSKATMTVDTSTNTAYMELSSLRSEDTAVYYCASRDYDYDGRYFDYWGQGTLVTVSSASTKGPSVFPLAPSSKSTSGGTAALGCLVKDYFPEPVTVSWNSGALTSGVHTFPAVLQSSGLYSLSSVVTVPSSSLGTQTYICNVNHKPSNTKVDKKVEPKSCDKTHTCPPCPAPELLGGPSVFLFPPKPKDTLMISRTPEVTCVVVDVSHEDPEVKFNWYVDGVEVHNAKTKPREEQYNSTYRVVSVLTVLHQDWLNGKEYKCKVSNKALPAPIEKTISKAKGQPFRPEVHLLPPSREEMTKNQVSLTCLARGFYPKDIAVEWESNGQPENNYKTTPSRQEPSQGTTTFAVTSKLTVDKSRWQQGNVFSCSVMHEALHNHYTQKTISLSPGK EPKSSDKTHTCPPCPAPELLGGPSVFLFPPKPKDTLMISRTPEVTCVVVDVSHEDPEVKFNWYVDGVEVHNAKTKPREEQYNSTYRVVSVLTVLHQDWLNGKEYKCKVSNKALPAPIEKTISKAKGQPREPQVYTLPPPSEELALNELVTLTCLVKGFYPSDIAVEWLQGSQELPREKYLTWAPVLDSDGSFFLYSILRVAAEDWKKGDTFSCSVMHEALHNHYTQKSLDRSPGK light: DIQMTQSPSSLSASVGDRVTITCSASSSVTYMYWYQQKPGKAPKLLIYDTSNLASGVPSRFSGSGSGTDYTFTISSLQPEDIATYYCQQWSSHIFTFGQGTKVEIKRTVAAPSVFIFPPSDEQLKSGTASVVCLLNNFYPREAKVQWKVDNALQSGNSQESVTEQDSKDSTYSLSSTLTLSKADYEKHKVYACEVTHQGLSSPVTKSFNRGEC | –
9 | – | binds | one-armed anti-EGFR SEED antibody with SEED CH3 domain-exchanged Fab, Variant 1 (antibody, hu425 Fv; one Fab arm only; also called CH3-SEED variant 1) heavy: QVQLVQSGAEVKKPGASVKVSCKASGYTFTSHWMHWVRQAPGQGLEWIGEFNPSNGRTNYNEKFKSKATMTVDTSTNTAYMELSSLRSEDTAVYYCASRDYDYDGRYFDYWGQGTLVTVSSASTKGPEVHLLPPSREEMTKNQVSLTCLARGFYPKDIAVEWESNGQPENNYKTTPSRQEPSQGTTTFAVTSKLTVDKSRWQQGNVFSCSVMHEALHNHYTQKTISLSKSCDKTHTCPPCPAPELLGGPSVFLFPPKPKDTLMISRTPEVTCVVVDVSHEDPEVKFNWYVDGVEVHNAKTKPREEQYNSTYRVVSVLTVLHQDWLNGKEYKCKVSNKALPAPIEKTISKAKGQPFRPEVHLLPPSREEMTKNQVSLTCLARGFYPKDIAVEWESNGQPENNYKTTPSRQEPSQGTTTFAVTSKLTVDKSRWQQGNVFSCSVMHEALHNHYTQKTISLSPGK light: DIQMTQSPSSLSASVGDRVTITCSASSSVTYMYWYQQKPGKAPKLLIYDTSNLASGVPSRFSGSGSGTDYTFTISSLQPEDIATYYCQQWSSHIFTFGQGTKVEIKRTVAEPQVYTLPPPSEELALNELVTLTCLVKGFYPSDIAVEWLQGSQELPREKYLTWAPVLDSDGSFFLYSILRVAAEDWKKGDTFSCSVMHEALHNHYTQKSLDRSGEC EPKSSDKTHTCPPCPAPELLGGPSVFLFPPKPKDTLMISRTPEVTCVVVDVSHEDPEVKFNWYVDGVEVHNAKTKPREEQYNSTYRVVSVLTVLHQDWLNGKEYKCKVSNKALPAPIEKTISKAKGQPREPQVYTLPPPSEELALNELVTLTCLVKGFYPSDIAVEWLQGSQELPREKYLTWAPVLDSDGSFFLYSILRVAAEDWKKGDTFSCSVMHEALHNHYTQKSLDRSPGK | –
10 | – | binds | one-armed anti-EGFR SEED antibody with SEED CH3 domain-exchanged Fab, Variant 2 (antibody, hu425 Fv; one Fab arm only; also called CH3-SEED variant 2) heavy: QVQLVQSGAEVKKPGASVKVSCKASGYTFTSHWMHWVRQAPGQGLEWIGEFNPSNGRTNYNEKFKSKATMTVDTSTNTAYMELSSLRSEDTAVYYCASRDYDYDGRYFDYWGQGTLVTVSSASTKGEPQVYTLPPPSEELALNELVTLTCLVKGFYPSDIAVEWLQGSQELPREKYLTWAPVLDSDGSFFLYSILRVAAEDWKKGDTFSCSVMHEALHNHYTQKSLDRSKSCDKTHTCPPCPAPELLGGPSVFLFPPKPKDTLMISRTPEVTCVVVDVSHEDPEVKFNWYVDGVEVHNAKTKPREEQYNSTYRVVSVLTVLHQDWLNGKEYKCKVSNKALPAPIEKTISKAKGQPFRPEVHLLPPSREEMTKNQVSLTCLARGFYPKDIAVEWESNGQPENNYKTTPSRQEPSQGTTTFAVTSKLTVDKSRWQQGNVFSCSVMHEALHNHYTQKTISLSPGK light: DIQMTQSPSSLSASVGDRVTITCSASSSVTYMYWYQQKPGKAPKLLIYDTSNLASGVPSRFSGSGSGTDYTFTISSLQPEDIATYYCQQWSSHIFTFGQGTKVEIKRTVAPEVHLLPPSREEMTKNQVSLTCLARGFYPKDIAVEWESNGQPENNYKTTPSRQEPSQGTTTFAVTSKLTVDKSRWQQGNVFSCSVMHEALHNHYTQKTISLSGEC EPKSSDKTHTCPPCPAPELLGGPSVFLFPPKPKDTLMISRTPEVTCVVVDVSHEDPEVKFNWYVDGVEVHNAKTKPREEQYNSTYRVVSVLTVLHQDWLNGKEYKCKVSNKALPAPIEKTISKAKGQPREPQVYTLPPPSEELALNELVTLTCLVKGFYPSDIAVEWLQGSQELPREKYLTWAPVLDSDGSFFLYSILRVAAEDWKKGDTFSCSVMHEALHNHYTQKSLDRSPGK | –
11 | – | binds | one-armed anti-EGFR SEED antibody with KiH2 CH3 domain-exchanged Fab, Variant 2 (antibody, hu425 Fv; one Fab arm only; also called KiH2 variant 2) heavy: QVQLVQSGAEVKKPGASVKVSCKASGYTFTSHWMHWVRQAPGQGLEWIGEFNPSNGRTNYNEKFKSKATMTVDTSTNTAYMELSSLRSEDTAVYYCASRDYDYDGRYFDYWGQGTLVTVSSASTKGEPQVYTLPPSRDELTKNQVSLSCAVKGFYPSDIAVEWESNGQPENNYKTTPPVLDSDGSFFLVSKLTVDKSRWQQGNVFSCSVMHEALHNHYTQKSLSLSKSCDKTHTCPPCPAPELLGGPSVFLFPPKPKDTLMISRTPEVTCVVVDVSHEDPEVKFNWYVDGVEVHNAKTKPREEQYNSTYRVVSVLTVLHQDWLNGKEYKCKVSNKALPAPIEKTISKAKGQPFRPEVHLLPPSREEMTKNQVSLTCLARGFYPKDIAVEWESNGQPENNYKTTPSRQEPSQGTTTFAVTSKLTVDKSRWQQGNVFSCSVMHEALHNHYTQKTISLSPGK light: DIQMTQSPSSLSASVGDRVTITCSASSSVTYMYWYQQKPGKAPKLLIYDTSNLASGVPSRFSGSGSGTDYTFTISSLQPEDIATYYCQQWSSHIFTFGQGTKVEIKRTVAEPQVYTLPPSRDELTKNQVSLWCLVKGFYPSDIAVEWESNGQPENNYKTTPPVLDSDGSFFLYSKLTVDKSRWQQGNVFSCSVMHEALHNHYTQKSLSLSGEC EPKSSDKTHTCPPCPAPELLGGPSVFLFPPKPKDTLMISRTPEVTCVVVDVSHEDPEVKFNWYVDGVEVHNAKTKPREEQYNSTYRVVSVLTVLHQDWLNGKEYKCKVSNKALPAPIEKTISKAKGQPREPQVYTLPPPSEELALNELVTLTCLVKGFYPSDIAVEWLQGSQELPREKYLTWAPVLDSDGSFFLYSILRVAAEDWKKGDTFSCSVMHEALHNHYTQKSLDRSPGK | –

Reference: US20180016354A1 (Merck KGaA, published 2018)
